Source: publication doi:10.1101/2025.09.05.674453

Assays:
[1] = molecular target: Arginine-specific gingipain RgpB (Porphyromonas gingivalis) (UniProt P95493); assay: progress curve analysis of protease inhibition
[2] = molecular target: Lysine-specific gingipain (Kgp), purified (Porphyromonas gingivalis) (UniProt Q51817); assay: progress curve analysis of protease inhibition
[3] = molecular target: Arginine-specific gingipain RgpB (Porphyromonas gingivalis) (UniProt P95493); assay: titration of residual protease activity
[4] = molecular target: Lysine-specific gingipain (Kgp), purified (Porphyromonas gingivalis) (UniProt Q51817); assay: titration of residual protease activity
[5] = molecular target: Thiol protease (Tpr) (Porphyromonas gingivalis) (UniProt P25806); assay: progress curve analysis of protease inhibition
[6] = molecular target: Thiol protease (Tpr) (Porphyromonas gingivalis) (UniProt P25806); assay: titration of residual protease activity

Sequence of UniProt Q51817 (Q51817 25-1732): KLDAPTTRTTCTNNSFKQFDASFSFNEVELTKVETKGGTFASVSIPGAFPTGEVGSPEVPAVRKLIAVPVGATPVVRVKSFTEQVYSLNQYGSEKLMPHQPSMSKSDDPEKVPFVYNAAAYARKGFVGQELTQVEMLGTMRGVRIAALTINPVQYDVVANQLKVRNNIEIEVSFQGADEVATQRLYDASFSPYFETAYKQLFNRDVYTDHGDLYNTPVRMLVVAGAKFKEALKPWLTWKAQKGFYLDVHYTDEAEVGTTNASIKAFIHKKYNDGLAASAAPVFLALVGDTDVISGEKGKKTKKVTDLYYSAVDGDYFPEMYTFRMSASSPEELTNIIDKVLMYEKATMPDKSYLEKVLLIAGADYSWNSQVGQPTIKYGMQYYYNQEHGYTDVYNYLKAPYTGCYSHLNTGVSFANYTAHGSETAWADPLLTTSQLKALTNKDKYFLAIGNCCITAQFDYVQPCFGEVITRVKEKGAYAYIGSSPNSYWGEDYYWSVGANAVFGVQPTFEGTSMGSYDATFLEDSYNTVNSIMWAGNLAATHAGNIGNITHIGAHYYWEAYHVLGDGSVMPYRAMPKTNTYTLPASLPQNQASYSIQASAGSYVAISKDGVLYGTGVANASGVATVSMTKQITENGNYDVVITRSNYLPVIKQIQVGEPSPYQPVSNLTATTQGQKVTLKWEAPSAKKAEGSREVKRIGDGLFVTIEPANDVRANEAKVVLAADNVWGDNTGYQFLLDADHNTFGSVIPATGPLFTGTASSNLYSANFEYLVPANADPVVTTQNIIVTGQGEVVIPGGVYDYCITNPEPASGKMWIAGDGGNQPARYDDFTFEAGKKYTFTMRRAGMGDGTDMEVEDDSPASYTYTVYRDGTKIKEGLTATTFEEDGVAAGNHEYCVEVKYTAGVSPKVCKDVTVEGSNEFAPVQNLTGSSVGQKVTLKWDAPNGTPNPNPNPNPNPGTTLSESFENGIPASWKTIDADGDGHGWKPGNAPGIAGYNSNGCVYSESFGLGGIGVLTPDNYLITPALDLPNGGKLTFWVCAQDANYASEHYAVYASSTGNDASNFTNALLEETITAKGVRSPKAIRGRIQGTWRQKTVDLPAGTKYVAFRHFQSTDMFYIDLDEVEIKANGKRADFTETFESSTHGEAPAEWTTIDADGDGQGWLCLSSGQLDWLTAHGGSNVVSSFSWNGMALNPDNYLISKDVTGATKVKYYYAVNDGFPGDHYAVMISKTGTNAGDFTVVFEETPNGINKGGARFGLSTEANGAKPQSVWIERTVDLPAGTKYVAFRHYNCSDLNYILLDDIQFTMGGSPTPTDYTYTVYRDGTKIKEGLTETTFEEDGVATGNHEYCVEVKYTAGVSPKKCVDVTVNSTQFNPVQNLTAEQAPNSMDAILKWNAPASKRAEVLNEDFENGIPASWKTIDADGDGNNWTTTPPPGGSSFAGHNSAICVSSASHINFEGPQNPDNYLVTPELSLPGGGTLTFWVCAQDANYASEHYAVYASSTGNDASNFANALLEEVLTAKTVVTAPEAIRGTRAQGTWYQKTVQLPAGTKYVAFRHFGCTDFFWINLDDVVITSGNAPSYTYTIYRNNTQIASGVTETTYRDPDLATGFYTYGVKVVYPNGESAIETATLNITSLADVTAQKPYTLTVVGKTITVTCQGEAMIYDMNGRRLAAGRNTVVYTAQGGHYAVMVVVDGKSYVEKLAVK
Sequence of UniProt P95493 (P95493 25-736): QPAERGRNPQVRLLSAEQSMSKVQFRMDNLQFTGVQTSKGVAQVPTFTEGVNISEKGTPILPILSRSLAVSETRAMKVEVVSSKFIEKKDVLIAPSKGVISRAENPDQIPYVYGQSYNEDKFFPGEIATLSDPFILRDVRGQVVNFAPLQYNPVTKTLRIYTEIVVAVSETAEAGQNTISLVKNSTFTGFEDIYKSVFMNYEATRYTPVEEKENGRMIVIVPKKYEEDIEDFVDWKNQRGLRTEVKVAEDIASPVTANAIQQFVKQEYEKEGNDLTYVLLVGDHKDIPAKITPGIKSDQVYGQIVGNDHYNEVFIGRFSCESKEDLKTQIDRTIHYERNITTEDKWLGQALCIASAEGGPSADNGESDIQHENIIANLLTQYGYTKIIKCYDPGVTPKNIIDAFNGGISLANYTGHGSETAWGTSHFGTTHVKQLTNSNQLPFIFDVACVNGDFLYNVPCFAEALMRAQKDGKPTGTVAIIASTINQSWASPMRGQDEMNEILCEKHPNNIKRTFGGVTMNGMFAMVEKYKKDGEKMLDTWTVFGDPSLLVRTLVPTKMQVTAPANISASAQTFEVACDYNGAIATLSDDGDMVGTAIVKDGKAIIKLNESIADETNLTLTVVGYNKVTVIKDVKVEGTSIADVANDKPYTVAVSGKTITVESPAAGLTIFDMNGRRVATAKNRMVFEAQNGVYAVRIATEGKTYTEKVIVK
Sequence of UniProt P25806 (P25806 whole entry): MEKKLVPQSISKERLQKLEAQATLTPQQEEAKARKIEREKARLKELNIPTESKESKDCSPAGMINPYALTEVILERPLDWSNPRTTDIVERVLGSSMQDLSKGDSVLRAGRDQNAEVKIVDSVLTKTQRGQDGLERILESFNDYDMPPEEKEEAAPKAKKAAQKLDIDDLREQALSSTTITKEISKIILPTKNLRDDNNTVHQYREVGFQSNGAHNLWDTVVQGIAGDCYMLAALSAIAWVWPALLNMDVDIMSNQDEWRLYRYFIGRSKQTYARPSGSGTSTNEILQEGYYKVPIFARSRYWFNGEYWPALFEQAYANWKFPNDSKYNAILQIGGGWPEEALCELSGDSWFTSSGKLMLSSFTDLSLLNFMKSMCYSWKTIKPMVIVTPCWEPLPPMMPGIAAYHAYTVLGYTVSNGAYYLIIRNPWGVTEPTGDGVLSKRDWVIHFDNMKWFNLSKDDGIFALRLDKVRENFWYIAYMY

Substance	kon [1] [M⁻¹ s⁻¹]	kon [2] [M⁻¹ s⁻¹]	stoichiometry of inhibition (SI) [3]	stoichiometry of inhibition (SI) [4]	kon [5] [M⁻¹ s⁻¹]	stoichiometry of inhibition (SI) [6]
RVK-miropin (natural protein)	740000	330000	1.7	1.7	–	–
Recombinant wild-type miropin (VKT-mir) (natural protein)	–	220000	–	1.9	2500	9.3
